Molecular target: T1, GST-LHP1 (Arabidopsis thaliana (Col-0 cDNA), UniProt Q946J8 1-445)
T1 sequence: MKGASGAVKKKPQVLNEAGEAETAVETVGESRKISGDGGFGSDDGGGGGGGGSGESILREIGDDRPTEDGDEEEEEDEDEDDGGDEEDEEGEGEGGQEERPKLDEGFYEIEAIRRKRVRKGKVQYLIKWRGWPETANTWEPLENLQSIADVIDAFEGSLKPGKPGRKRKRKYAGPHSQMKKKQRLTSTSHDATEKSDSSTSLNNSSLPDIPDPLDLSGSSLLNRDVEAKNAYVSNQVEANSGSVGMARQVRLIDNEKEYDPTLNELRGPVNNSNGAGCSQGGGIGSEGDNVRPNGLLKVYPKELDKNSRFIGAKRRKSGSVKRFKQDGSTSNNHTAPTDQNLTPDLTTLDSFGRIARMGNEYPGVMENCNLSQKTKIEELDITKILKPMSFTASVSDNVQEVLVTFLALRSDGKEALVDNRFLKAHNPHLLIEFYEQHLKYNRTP
Assay: EMSA; EMSA: 20 mM HEPES-KOH pH 7.5, 100 mM KCl, 0.05% NP-40, 10 nM Cy5 probe (1 uL of 100 nM + 9 uL protein), 30 min room temperature; 1.6% TBE-agarose gel
Conditions: protein: recombinant; tags: N-terminal GST (pGEX-4T-1); label: 5' Cy5; single-stranded

## CUCCUCCGGCGAUAAGUACGCCUUUUCCUUACCUGGGUUU (ssRNA) [FLC 40-nt ssRNA]
  Kd: ~200 nM
